Residue numbers refer to the chain shown, from its start. Names and notes keep the numbering of the source. Values belong to the molecule of their own block, whether it stands above or below them. Positions of bridges follow the written chain, without caps; N, C: chain ends. Non-standard residues stand in square brackets, D forms with d. Residues, ends and D or L forms follow the SMILES beside them. hArg = N=C(N)NCCCC[C@H](N)C(=O)O; Mpa = O=C(O)CCS
Legend:
soluble integrin αIIbβ3 [1] = target: T1, soluble integrin αIIbβ3 (Homo sapiens, UniProt P05106+P08514); assay: ELISA-type integrin binding assay, soluble αIIbβ3; settings: 1 mM Mn2+
T1 construct: Soluble recombinant αIIbβ3 or αvβ3 (AgroBio, 1 μg/ml); purchased AgroBio
Experimental: (§1) FIG. 2. PF4 specifically binds to soluble αIIbβ3 and αvβ3 in ELISA-type binding assays in 1 mM Mn^2+. FIG. 2a PF4 binds to soluble integrins in 1 mM Mn^2+ in ELISA-type binding assays. PF4 was immobilized to wells of 96-well microtiter plate and incubated with soluble αIIbβ3 or αvβ3 (1 μg/ml) in Tyrode-HEPES buffer with 1 mM Mn^2+ (to activate integrins) for 1 hr at room temperature and bound integrins were quantified using anti-β3 (mAb AV10) and HRP-conjugated anti-mouse IgG. Data are shown as means+/−SD in triplicate experiments. […] FIG. 2b Binding of authentic PF4 (Invitrogen) to integrins. Binding assays were performed as described in (a). PF4 (6.25 μg/ml) was used. Data are shown as means+/−SD in triplicate experiments. […] FIGS. 2c and d The binding of PF4 to integrins was suppressed by the distintegrin domain of ADAM15 fused to GST (ADAM15 disintegrin), but not by control GST. To establish the specificity of PF4 binding to soluble integrins αIIbβ3 (b) and αvβ3 (c), if ADAM15 disintegrin, which is known to bind to integrins αIIbβ3 (22) and αvβ3 (21), suppress the binding. […] Data are shown as means+/−SD in triplicate experiments. […] Bound integrins were quantified as described in (a). […]
(§2) Wells of 96-well microtiter plates were coated with PF4. […] Bound αIIbβ3 or αvβ3 was measured using anti-integrin β3 mAb (AV-10) followed by HRP-conjugated goat anti-mouse IgG and peroxidase substrates.

soluble integrin αvβ3 [2] = target: T2, soluble integrin αvβ3 (Homo sapiens, UniProt P05106+P06756); assay: ELISA-type integrin binding assay, soluble αvβ3; settings: competitor 100 μg/ml; immobilized PF4 (12.5 g/ml); 1 mM Mn2+
T2 construct: Soluble recombinant αIIbβ3 or αvβ3 (AgroBio, 1 μg/ml); purchased AgroBio
Experimental: as §1, §2

[3] = target: T3, soluble recombinant integrin αIIbβ3 (UniProt P08514 32-993; P05106 27-718); assay: ELISA-type binding: immobilized PF4, soluble αIIbβ3 1 µg/ml, 1 mM Mn2+, detection with anti-β3 mAb AV10
T3 construct: Bought soluble heterodimer, used at 1 µg/ml; also called soluble αIIbβ3
Experimental: (§4) Data are shown as means+/−SD in triplicate experiments. […] Binding assays were performed as described in (a). […] Data are shown as means+/−SD in triplicate experiments. […] Data are shown as means+/−SD in triplicate experiments. […] Assays were performed as described in (a). Data is shown as means+/−SD in triplicate experiments. […] Wells were incubated with soluble integrins (1 μg/ml) in Tyrode-HEPES buffer with different cations (1 mM). Bound integrins were quantified as described in (a). Data are shown as means+/−SD in triplicate experiments.

[4] = target: T4, soluble recombinant integrin αvβ3 (UniProt P06756 31-992; P05106 27-718); assay: ELISA-type binding: immobilized PF4, soluble αvβ3 1 µg/ml, 1 mM Mn2+, detection with anti-β3 mAb AV10
T4 construct: Bought soluble heterodimer, used at 1 µg/ml; also called soluble αvβ3
Experimental: as §4

soluble integrin αvβ3 [5] = target: T2, soluble integrin αvβ3; assay: ELISA-type integrin activation assay, soluble αvβ3 binding to immobilized γC399tr; format: biochemical; settings: for ability of PF4 mutant to mediate RTO/PF4-induced αvβ3 activation: PF4 mutant in complex with anti-PF4 RTO, 1 mM Ca2+
Experimental: FIG. 4. […] FIG. 4a. Anti-PF4 (RTO) markedly enhances PF4-induced activation of soluble αvβ3 in 1 mM Ca^2+ in ELISA-type activation assays. Fibrinogen fragment γC399tr (151-399 segment of fibrinogen γ chain, a specific ligand for αvβ3) was immobilized to wells of 96-well microtiter plate. […] Anti-PF4 (RTO or KKO, 10 μg/ml) were added (without heparin). After washing, bound integrins were quantified using anti-β3 (mAb AV10) and HRP-conjugated anti-mouse IgG. Mouse IgG (10 μg/ml) and no antibody were used as negative controls. […] FIG. 4b. […] Commercial PF4 was used instead of our own PF4 preparation. Activation assays were performed as described in a. […] FIG. 4c. Point mutations in the predicted integrin-binding site (site 2) of PF4 suppressed activation of αvβ3 by the anti-PF4/PF4 complex. […] FIG. 4d. The R20E/R22E/K46E/R49E mutant suppressed integrin activation by the RTO/PF4 complex. WT PF4 (0.5 μg/ml) and excess PF4 mutant (5 or 10 μg/ml) were used.
(§3) Wells of 96-well microtiter plates were coated with γC390-411 (a specific ligand for αIIbβ3) or γC399tr (a specific ligand for αvβ3). Remaining protein binding sites were blocked with BSA. Soluble recombinant αIIbβ3 or αvβ3 (AgroBio, 1 μg/ml) was pre-incubated with chemokines PF4 or anti-PF4/PF4 for 10 min at room temperature and was added to the wells and incubated in HEPES-Tyrodes buffer with 1 mM CaCl2 for 1 h at room temperature. After unbound αIIbβ3 or αvβ3 was removed by rinsing the wells with binding buffer, bound αIIbβ3 or αvβ3 was measured using anti-integrin B3 mAb (AV-10) followed by HRP-conjugated goat anti-mouse IgG and peroxidase substrates.

soluble integrin αIIbβ3 [6] = target: T1, soluble integrin αIIbβ3; assay: ELISA-type integrin activation assay, soluble αIIbβ3 binding to immobilized γC390-411; format: biochemical; settings: for ability of PF4 mutant to mediate RTO/PF4-induced αIIbβ3 activation: PF4 mutant in complex with anti-PF4 RTO, 1 mM Ca2+
Experimental: FIG. 3. […] FIG. 3a. Anti-PF4 (RTO) markedly enhances PF4-induced activation of soluble αIIbβ3 in 1 mM Ca^2+ in ELISA-type activation assays in a dose-dependent manner at physiological concentrations of PF4 (below 1 μg/ml). The fibrinogen fragments γC390-411 (a specific ligand for αIIbβ3) was immobilized to wells of 96-well microtiter plate. […] Anti-PF4 (RTO or KKO, 10 μg/ml) were added (without heparin). After washing, bound integrins were quantified using anti-β3 (mAb AV10) and HRP-conjugated anti-mouse IgG. Mouse IgG (10 μg/ml) and no antibody were used as negative controls. Data are shown as means+/−SD in triplicate experiments. FIG. 3b. […] Commercial PF4 was used instead of our own PF4 preparation. Activation assays were performed as described in a. […] FIG. 3c. Point mutations in the predicted integrin-binding site (site 2) of PF4 suppressed activation of αIIbβ3 by the anti-PF4/PF4 complex. […] FIG. 3d. The R20E/R22E/K46E/R49E mutant suppressed integrin activation by the anti-PF4/PF4 complex. WT PF4 ([…]) and excess PF4 mutant (5 or 10 μg/ml) were used.
as §3

T2 sequence (P06756 31-992 limits assumed): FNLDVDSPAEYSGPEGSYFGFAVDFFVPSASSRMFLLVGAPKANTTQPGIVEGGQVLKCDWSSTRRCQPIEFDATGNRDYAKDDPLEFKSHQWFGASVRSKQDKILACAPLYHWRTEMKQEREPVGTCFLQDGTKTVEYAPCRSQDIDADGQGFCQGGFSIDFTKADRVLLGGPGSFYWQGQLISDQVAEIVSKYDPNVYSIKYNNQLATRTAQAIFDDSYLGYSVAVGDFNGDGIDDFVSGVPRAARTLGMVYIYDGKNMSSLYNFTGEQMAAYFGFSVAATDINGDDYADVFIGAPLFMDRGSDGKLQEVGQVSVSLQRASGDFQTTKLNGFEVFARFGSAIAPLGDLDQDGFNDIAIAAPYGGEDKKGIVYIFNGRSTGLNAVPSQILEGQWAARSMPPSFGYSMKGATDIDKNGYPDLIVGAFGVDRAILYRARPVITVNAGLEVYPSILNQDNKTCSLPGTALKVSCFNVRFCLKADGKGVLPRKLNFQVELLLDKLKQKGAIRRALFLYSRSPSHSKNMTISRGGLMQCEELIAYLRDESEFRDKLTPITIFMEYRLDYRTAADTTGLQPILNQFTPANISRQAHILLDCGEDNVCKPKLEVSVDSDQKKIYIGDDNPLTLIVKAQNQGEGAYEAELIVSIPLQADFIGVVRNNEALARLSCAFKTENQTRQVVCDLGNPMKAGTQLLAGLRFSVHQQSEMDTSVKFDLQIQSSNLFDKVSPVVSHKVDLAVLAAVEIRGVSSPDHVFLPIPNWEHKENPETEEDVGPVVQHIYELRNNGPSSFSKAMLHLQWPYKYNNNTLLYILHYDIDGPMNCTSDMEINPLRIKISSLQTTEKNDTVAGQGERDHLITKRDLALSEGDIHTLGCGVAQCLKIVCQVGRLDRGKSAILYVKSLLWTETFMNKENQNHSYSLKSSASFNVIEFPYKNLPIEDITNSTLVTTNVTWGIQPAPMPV
T2 sequence (P05106 27-718 limits assumed): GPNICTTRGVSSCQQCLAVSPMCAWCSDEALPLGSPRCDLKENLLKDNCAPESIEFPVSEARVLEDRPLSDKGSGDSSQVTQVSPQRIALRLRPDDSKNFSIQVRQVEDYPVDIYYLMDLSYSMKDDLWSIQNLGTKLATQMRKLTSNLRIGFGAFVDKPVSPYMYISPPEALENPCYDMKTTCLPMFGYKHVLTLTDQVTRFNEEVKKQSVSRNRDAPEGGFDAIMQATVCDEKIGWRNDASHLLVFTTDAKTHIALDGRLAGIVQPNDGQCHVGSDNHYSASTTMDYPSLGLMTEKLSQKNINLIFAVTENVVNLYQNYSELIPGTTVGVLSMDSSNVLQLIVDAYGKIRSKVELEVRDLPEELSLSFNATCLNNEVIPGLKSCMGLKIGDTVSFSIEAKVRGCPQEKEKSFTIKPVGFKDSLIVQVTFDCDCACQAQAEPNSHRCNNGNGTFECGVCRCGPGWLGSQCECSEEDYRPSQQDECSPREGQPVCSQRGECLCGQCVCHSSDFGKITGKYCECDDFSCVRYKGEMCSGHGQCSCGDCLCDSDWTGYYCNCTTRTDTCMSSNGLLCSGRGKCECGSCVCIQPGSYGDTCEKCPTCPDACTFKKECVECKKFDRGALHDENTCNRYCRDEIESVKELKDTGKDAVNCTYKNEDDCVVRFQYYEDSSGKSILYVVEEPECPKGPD
T4 sequence (P06756 31-992, chain 1 of 2): as the sequence (P06756 31-992 limits assumed) above
T4 sequence (P05106 27-718, chain 2 of 2): as the sequence (P05106 27-718 limits assumed) above

Molecule: N=C(N)NCCCC[C@@H]1NC(=O)CCSSC[C@@H](C(N)=O)NC(=O)[C@@H]2CCCN2C(=O)[C@H](Cc2c[nH]c3ccccc23)NC(=O)[C@H](CC(=O)O)NC(=O)CNC1=O [eptifibatide] ([Mpa][hArg]GDWPC-NH2; disulfide 1-7)
- effect of integrin antagonists on PF4 binding to αIIbβ3 (soluble integrin αIIbβ3 [1]; PF4 coated at 50 μg/ml, mAb 7E3 10 μg/ml, eptifibatide 0.65 μg/ml, cyclic RGDfV 10 μM): weak inhibition

B2: R20E/R22E: PF4 (SEQ ID NO: 1) double mutant, Arg20 and Arg22 mutated to Glu (protein)
chain: EAEEDGDLQCLCVKTTSQVEPEHITSLEVIKAGPHCPTAQLIATLKNGRKICLDLQAPLYKKIIKKLLES
modifications: Description ofsequence: PF4 sp|P02776|32-101
- ability of PF4 mutant to mediate RTO/PF4-induced αvβ3 activation (soluble integrin αvβ3 [5]): reduced ability
- ability of PF4 mutant to mediate RTO/PF4-induced αIIbβ3 activation (soluble integrin αIIbβ3 [6]): reduced ability

B3: R20E/R22E/K46E/R49E: PF4 (SEQ ID NO: 1) quadruple mutant defective in site 2 binding; dominant-negative antagonist (protein)
chain: B2 chain with K46E, R49E
modifications: Description ofsequence: PF4 sp|P02776|32-101
notes: dominant-negative antagonist
- ability of PF4 mutant to mediate RTO/PF4-induced αvβ3 activation (soluble integrin αvβ3 [5]): most effectively reduced
- suppression of αvβ3 activation by the RTO/PF4 complex (antagonist effect) (soluble integrin αvβ3 [5]; WT PF4 (0.5 μg/ml) and excess PF4 mutant (5 or 10 μg/ml), RTO): suppressed
- ability of PF4 mutant to mediate RTO/PF4-induced αIIbβ3 activation (soluble integrin αIIbβ3 [6]): most effectively reduced
- suppression of αIIbβ3 activation by the anti-PF4/PF4 complex (antagonist effect) (soluble integrin αIIbβ3 [6]; WT PF4 (0.5 g/ml) and excess PF4 mutant (5 or 10 μg/ml), RTO): suppressed

The next lines start with the values.

- suppression of αIIbβ3 binding to immobilized PF4 (soluble integrin αIIbβ3 [1]; competitor 100 μg/ml, immobilized PF4 (12.5 g/ml)): suppressed
- suppression of αvβ3 binding to immobilized PF4 (soluble integrin αvβ3 [2]): suppressed
Molecule: ADAM15 disintegrin: disintegrin domain of ADAM15 fused to GST, known to bind integrins αIIbβ3 and αvβ3

- Kd [3]: < 1 µg/mL
- Kd [4]: < 1 µg/mL
B1: PF4 (platelet factor 4, chemokine CXCL4), preparation generated in the inventors' lab (ligand)
chain: B2 chain with E20R, E22R
notes: Made in E. coli BL21 from pET28a as inclusion bodies, purified on Ni-NTA under denaturing conditions and renatured; also called WT PF4; wild-type PF4; not shown: Vector-derived N-terminal tag and leader of pET28a (His tag used for Ni-NTA purification, BamHI/EcoRI insert)

- ability of PF4 mutant to mediate RTO/PF4-induced αvβ3 activation (soluble integrin αvβ3 [5]): reduced ability
- ability of PF4 mutant to mediate RTO/PF4-induced αIIbβ3 activation (soluble integrin αIIbβ3 [6]): reduced ability
B4: K46E/R49E: PF4 (SEQ ID NO: 1) double mutant, Lys46 and Arg49 mutated to Glu (protein)
chain: B2 chain with E20R, E22R, K46E, R49E
modifications: Description ofsequence: PF4 sp|P02776|32-101

Source: US20250003978A1, “DIAGNOSIS AND TREATMENT OF ANTI-PF4 INDUCED THROMBOCYTOPENIA” (The Regents of the University of California, priority 2021, published 2025)
